Peptide exchange yield data for 60 molecules are collected here from patent US20160287687A1 (IMMATICS BIOTECHNOLOGIES, published 2016).

The labels stand for the following.
B1: ALIVSLPYL (SEQ ID NO: 1) (peptide)
peptide: ALIVSLPYL
notes: source gene SLC17A3; also called SLC17A3-001

This experiment deals with T1, HLA-A*02:01 (human).
T1 construct: MHC monomers first loaded with a UV-sensitive peptide (not identified) that is cleaved by UV light and exchanged for the test peptide; captured on streptavidin plates, detected with anti-β2m; also called peptide-receptive MHC molecules; MHC class I
The experiment can be described thus: UV-ligand exchange + anti-b2m ELISA; peptide exchange yield grade (+ >=10%, ++ >=20%, +++ >=50, ++++ >=75%). An excerpt:
Candidate peptides for T cell based therapies according to the present invention were further tested for their MHC binding capacity (affinity). The individual peptide-MHC complexes were produced by UV-ligand exchange, where a UV-sensitive peptide is cleaved upon UV-irradiation, and exchanged with the peptide of interest as analyzed. Only peptide candidates that can effectively bind and stabilize the peptide-receptive MHC molecules prevent dissociation of the MHC complexes. To determine the yield of the exchange reaction, an ELISA was performed based on the detection of the light chain (β2m) of stabilized MHC complexes. The assay was performed as generally described in Rodenko et al. (Rodenko et al., 2006).
96 well MAXISorp plates (NUNC) were coated over night with 2 ug/ml streptavidin in PBS at room temperature, washed 4× and blocked for 1h at 37° C. in 2% BSA containing blocking buffer. Refolded HLA-A*02:01/MLA-001 monomers served as standards, covering the range of 15-500 ng/ml. Peptide-MHC monomers of the UV-exchange reaction were diluted 100 fold in blocking buffer. Samples were incubated for 1 h at 37° C., washed four times, incubated with 2 ug/ml HRP conjugated anti-β2m for 1h at 37° C., washed again and detected with TMB solution that is stopped with […]. Absorption was measured at 450 nm. Candidate peptides that show a high exchange yield (preferably higher than 50%, most preferred higher than 75%) are generally preferred for a generation and production of antibodies or fragments thereof, and/or T cell receptors or fragments thereof, as they show sufficient avidity to the MHC molecules and prevent dissociation of the MHC complexes.
(In an ELISA, binding on a coated surface is turned into a signal by an enzyme label.)
In the case of ELNNQNFYL (source gene CIT) [ELNNQNFYL (SEQ ID NO: 34)], the peptide exchange yield lay in the range of 50 to 75%.

As to ILAQQVHAL (source gene KIF12) [ILAQQVHAL (SEQ ID NO: 17)], the peptide exchange yield was in the range of 50 to 75%.

As for YVLDLAAKV (source gene ACLY) [YVLDLAAKV (SEQ ID NO: 18)], the peptide exchange yield was 50 to 75%.

In the case of VLMDLKALLL (source gene DDX41) [VLMDLKALLL (SEQ ID NO: 107)], the peptide exchange yield fell in the range of 50 to 75%.

Take ALVAKGLVQA (source gene AKR1A1) [ALVAKGLVQA (SEQ ID NO: 54)]: the peptide exchange yield was in the range of 20 to 50%.

As for KIMAQILTV (source gene LRRK2) [KIMAQILTV (SEQ ID NO: 13)], the peptide exchange yield lay in the range of 50 to 75%.

Take SILDAVQRV (source gene PXDNL) [SILDAVQRV (SEQ ID NO: 52)]: the peptide exchange yield is 20 to 50%.

In the case of ALFSFVTAL (source gene TTYH3) [ALFSFVTAL (SEQ ID NO: 44)], the peptide exchange yield lay in the range of 50 to 75%.

On to VLFGLDPAVIKV (source gene HSPA12A) [VLFGLDPAVIKV (SEQ ID NO: 31)], for which the peptide exchange yield was in the range of 50 to 75%.

As for YLLNLNHLGL (source gene TRAM1) [YLLNLNHLGL (SEQ ID NO: 39)], the peptide exchange yield was 50 to 75%.

YIQEVVQYI (source gene PLCB1) [YIQEVVQYI (SEQ ID NO: 23)]: the peptide exchange yield fell in the range of 50 to 75%.

Regarding YIQEHLLQI (source gene IVNS1ABP) [YIQEHLLQI (SEQ ID NO: 40)], the peptide exchange yield was 50 to 75%.

With RLLGEVQAL (source gene HSF4) [RLLGEVQAL (SEQ ID NO: 3)], the peptide exchange yield was in the range of 20 to 50%.

Consider ALADLDELLIRA (source gene HSPG2) [ALADLDELLIRA (SEQ ID NO: 105)], for which the peptide exchange yield was 50 to 75%.

FIQTEAPKEV (source gene RGS5) [FIQTEAPKEV (SEQ ID NO: 11)]: the peptide exchange yield was 20 to 50%.

For FIADVVEKI (source genes HTRA1, HTRA3) [FIADVVEKI (SEQ ID NO: 33)], the peptide exchange yield is 20 to 50%.

Consider FMPEELPQL (source gene THNSL2) [FMPEELPQL (SEQ ID NO: 16)], for which the peptide exchange yield fell in the range of 20 to 50%.

Turning to RLIQGDQILSV (source gene INADL) [RLIQGDQILSV (SEQ ID NO: 21)], the peptide exchange yield was 20 to 50%.

For SLSDLLVSL (source gene OPN3) [SLSDLLVSL (SEQ ID NO: 27)], the peptide exchange yield was 50 to 75%.

Consider SLFGKKYIL (source gene FHL2) [SLFGKKYIL (SEQ ID NO: 36)], for which the peptide exchange yield fell in the range of 20 to 50%.

For the molecule YLKDELDEL (source gene SOGA2) [YLKDELDEL (SEQ ID NO: 43)], the peptide exchange yield was 50 to 75%.

With ALFEGVVRQI (source gene RRAD) [ALFEGVVRQI (SEQ ID NO: 104)], the peptide exchange yield was in the range of 50 to 75%.

For the molecule KLLQNNYGL (source gene RGS5) [KLLQNNYGL (SEQ ID NO: 10)], the peptide exchange yield lay in the range of 20 to 50%.

On to VLIVEVPGV (source gene ADCY5) [VLIVEVPGV (SEQ ID NO: 49)], for which the peptide exchange yield is 50 to 75%.

With FLSQDIITV (source gene REN) [FLSQDIITV (SEQ ID NO: 4)], the peptide exchange yield lay in the range of 50 to 75%.

Take GLSEVLVQI (source gene MICAL3) [GLSEVLVQI (SEQ ID NO: 46)]: the peptide exchange yield was in the range of 50 to 75%.

For FLSPPLPSV (source genes BCKDHA, TMEM91) [FLSPPLPSV (SEQ ID NO: 22)], the peptide exchange yield lay in the range of 50 to 75%.

ILWREVVTL (source gene HSF4) [ILWREVVTL (SEQ ID NO: 2)]: the peptide exchange yield lay within 50 to 75%.

NLWPMILTL (source gene ITGA3) [NLWPMILTL (SEQ ID NO: 51)]: the peptide exchange yield is 50 to 75%.

As for VILDTGTIQL (source gene NAT8) [VILDTGTIQL (SEQ ID NO: 42)], the peptide exchange yield is 20 to 50%.

Consider ALDPSGNQLI (source gene SEMA5B) [ALDPSGNQLI (SEQ ID NO: 12)], for which the peptide exchange yield fell in the range of 20 to 50%.

In the case of VLLDTILQL (source gene HSF2BP) [VLLDTILQL (SEQ ID NO: 38)], the peptide exchange yield fell in the range of 50 to 75%.

For the molecule GLLKTLQKL (source gene CLIC4) [GLLKTLQKL (SEQ ID NO: 41)], the peptide exchange yield is 20 to 50%.

As for TLLETEMLL (source gene CEP44) [TLLETEMLL (SEQ ID NO: 111)], the peptide exchange yield lay in the range of 20 to 50%.

Turning to YLYPNLTRL (source gene SLC6A13) [YLYPNLTRL (SEQ ID NO: 5)], the peptide exchange yield was in the range of 20 to 50%.

Turning to VLISVLQAI (source gene CYFIP2) [VLISVLQAI (SEQ ID NO: 108)], the peptide exchange yield was in the range of 20 to 50%.

Take LLFDHLEPIEL (source gene RASGRP3) [LLFDHLEPIEL (SEQ ID NO: 112)]: the peptide exchange yield was in the range of 50 to 75%.

As to FIADLVVGL (source genes ENO1, ENO2, ENO3) [FIADLVVGL (SEQ ID NO: 28)], the peptide exchange yield lay within 20 to 50%.

For B1, the peptide exchange yield lay in the range of 50 to 75%.

On to KLQDGLLHI (source gene TIMP1) [KLQDGLLHI (SEQ ID NO: 103)], for which the peptide exchange yield was 20 to 50%.

For the molecule ILIKHLVKV (source gene ARHGAP42) [ILIKHLVKV (SEQ ID NO: 15)], the peptide exchange yield was 20 to 50%.

Consider VLHSLQTQL (source gene ANGPTL4) [VLHSLQTQL (SEQ ID NO: 35)], for which the peptide exchange yield is 20 to 50%.

In the case of QLFYTKIFL (source gene PLOD1) [QLFYTKIFL (SEQ ID NO: 30)], the peptide exchange yield lay within 20 to 50%.

In the case of YLWSRVEKL (source gene LRRK2) [YLWSRVEKL (SEQ ID NO: 109)], the peptide exchange yield was at least 75%.

On to VLAPVILML (source gene ABCC3) [VLAPVILML (SEQ ID NO: 37)], for which the peptide exchange yield fell in the range of 20 to 50%.

VVASNIMEV (source gene PFKFB3) [VVASNIMEV (SEQ ID NO: 48)]: the peptide exchange yield fell in the range of 20 to 50%.

Consider TLAEVRAVQEI (source gene SMYD2) [TLAEVRAVQEI (SEQ ID NO: 47)], for which the peptide exchange yield was 50 to 75%.

ALAVNISAA (source gene CCT6A) [ALAVNISAA (SEQ ID NO: 114)]: the peptide exchange yield fell in the range of 50 to 75%.

Turning to VLMDLKALL (source gene DDX41) [VLMDLKALL (SEQ ID NO: 106)], the peptide exchange yield was 50 to 75%.

With ILLDLEQAL (source gene CUL7) [ILLDLEQAL (SEQ ID NO: 29)], the peptide exchange yield is 50 to 75%.

For the molecule SLFDWNVKL (source gene UBE2QL1) [SLFDWNVKL (SEQ ID NO: 113)], the peptide exchange yield lay in the range of 50 to 75%.

On to ALLGIPLTL (source genes KCNK3, KCNK15) [ALLGIPLTL (SEQ ID NO: 45)], for which the peptide exchange yield lay within 50 to 75%.

In the case of SLSDHIVLL (source gene ITGA3) [SLSDHIVLL (SEQ ID NO: 50)], the peptide exchange yield lay within 20 to 50%.

As to LLDLHSYLL (source gene MARCH6) [LLDLHSYLL (SEQ ID NO: 110)], the peptide exchange yield lay within 20 to 50%.

For FLLEIRQTL (source gene SNX13) [FLLEIRQTL (SEQ ID NO: 53)], the peptide exchange yield was in the range of 20 to 50%.

ALLTETIFL (source gene LRRK2) [ALLTETIFL (SEQ ID NO: 14)]: the peptide exchange yield was 20 to 50%.

In the case of FTLGTTVFL (source gene NDUFC1) [FTLGTTVFL (SEQ ID NO: 24)], the peptide exchange yield is 50 to 75%.

Take AVANTTFTV (source gene HSD3B7) [AVANTTFTV (SEQ ID NO: 20)]: the peptide exchange yield was in the range of 20 to 50%.

With LLDPGSLQL (source gene SYNDIG1L) [LLDPGSLQL (SEQ ID NO: 19)], the peptide exchange yield lay within 20 to 50%.

As to LLVPAHLVAA (source gene ESM1) [LLVPAHLVAA (SEQ ID NO: 25)], the peptide exchange yield lay within 20 to 50%.
